Numbering of substitutions follows the chain as printed. Blank lines part the entries; values can stand above or below the binder they belong to.
Tests used:
[1] = biological target: T1, Tissue Factor on MDA-MB-231 cells (UniProt P13726 33-295, limits assumed); assay: flow cytometry on MDA-MB-231 cells, Alexa Fluor 488 anti-human IgG
T1 construct: whole, on cells

antigen protein TF [2] = biological target: T2, antigen protein TF (UniProt P13726 33-251, limits assumed); assay: ELISA, TF coated at 1 µg/mL, HRP-Protein A detection
T2 construct: Soluble TF used in ELISA coating and BLI; also called TF protein; Tissue Factor
T2 sequence (P13726 33-251 limits assumed): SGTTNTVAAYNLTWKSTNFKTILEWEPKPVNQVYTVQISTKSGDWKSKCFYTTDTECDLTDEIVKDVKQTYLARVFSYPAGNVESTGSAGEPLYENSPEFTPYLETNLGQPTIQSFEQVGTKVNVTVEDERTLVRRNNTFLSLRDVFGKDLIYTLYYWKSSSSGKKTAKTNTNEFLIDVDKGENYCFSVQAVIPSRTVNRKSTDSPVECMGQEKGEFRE

antigen protein TF [3] = biological target: T2, antigen protein TF; assay: BLI (Fortebio), antibody on ProA sensor, 1:1 model

T1 sequence (P13726 33-295 limits assumed): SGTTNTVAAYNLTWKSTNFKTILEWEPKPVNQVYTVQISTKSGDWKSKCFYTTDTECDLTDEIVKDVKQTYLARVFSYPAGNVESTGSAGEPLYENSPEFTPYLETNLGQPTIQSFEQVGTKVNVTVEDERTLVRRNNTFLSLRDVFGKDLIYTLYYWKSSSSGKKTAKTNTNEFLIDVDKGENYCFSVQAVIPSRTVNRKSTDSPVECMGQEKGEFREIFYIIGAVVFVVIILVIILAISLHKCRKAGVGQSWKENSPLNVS

EC50 [1]: 1.13 µg/mL
EC50 (antigen protein TF [2]): 0.0155 µg/mL
Kd (antigen protein TF [3]): 0.43 nM
koff (antigen protein TF [3]): 0.000169 s⁻¹
kon (antigen protein TF [3]): 392000 M⁻¹ s⁻¹
B1: h1849-H2L1 (antibody, human IgG1, kappa, V domains shown)
VH: EVQLVESGGGVVQPGRSLRLSCAASGFTFSDYNMAWIRQAPGKGLEWVAAIIYDGTRTYYRDSVKGRFTISRDNSKSTLYLQMDSLRAEDTAVYYCATGDSYTNFAYWGQGTLVTVSS
VL: EIVLTQSPTFLSASVGDRVTITCRASSSLSYMHWYQQKPGTSPKLLIYETSKLQSGVPSRFSGSGSGTSFTLTIDSLQPEDFATYYCQQGNSYPRTFGGGTKVEIKR
notes: also called humanized anti-TF antibody

EC50 [1]: 2.3 µg/mL
EC50 (antigen protein TF [2]): 0.0191 µg/mL
koff (antigen protein TF [3]): < 1e-07 s⁻¹
kon (antigen protein TF [3]): 324000 M⁻¹ s⁻¹
B2: h1849-H3L3 (antibody, human IgG1, kappa, V domains shown)
VH: B1 VH with D84N
VL: B1 VL with F10S, Q54E, S69D
notes: as for B1
